As usually defined, the IC50 is the midpoint of a concentration-inhibition curve. What is called Kd is the constant that tells how readily two partners part at equilibrium. A high value points to weaker binding.

From the Immune Epitope Database (IEDB) come the findings set out here.

Assay [1] concerns the target HLA-A*68:02. The assay can be described thus: IEDB peptide-MHC binding, purified MHC/competitive/fluorescence; ≥ and ≤ were set here for values at or beyond the usual limits of such assays.
For assay [2], the target named is HLA-A*01:01. Described as above.
Assay [3] concerns the target HLA-B*08:01. The description is as above.
The target in assay [4] is HLA-B*53:01. The description is as above.
The target in assay [5] is HLA-A*24:02. Described as above.
For assay [6], the target named is HLA-A*11:01. The description is as above.
In assay [7] the target is HLA-B*14:02. The assay is described as above.
Assay [8] deals with HLA-B*07:02. The description is as above.
Assay [9] deals with HLA-B*58:01. The description is as above.
Assay [10] concerns the target HLA-A*25:01. The description is as above.
The target of assay [11] is HLA-A*31:01. Described as above.
The target in assay [12] is HLA-B*35:01. Described as above.
The target in assay [13] is HLA-B*51:01. The description is as above.
Assay [14] deals with HLA-B*44:03. The description is as above.
Assay [15] concerns the target HLA-B*37:01. Described as above.
For assay [16], the target named is HLA-A*03:01. The description is as above.
The target in assay [17] is HLA-B*40:02. Described as above.
The target of assay [18] is HLA-A*02:01. Described as above.
Assay [19] addresses HLA-B*18:01. The description is as above.
Assay [20] deals with HLA-A*29:02. The description is as above.
Assay [21] has as its target HLA-B*57:01. Briefly: IEDB peptide-MHC binding, purified MHC/direct/fluorescence; filed as Kd, often an IC50 or EC50 that approximates it; ≥ and ≤ were set here for values at or beyond the usual limits of such assays. The settings on record: source organism: Escherichia coli O157:H7.
Assay [22] concerns the target HLA-B*15:17. The assay is described as above. The settings on record: source organism: Escherichia coli O157:H7.
Assay [23] has as its target HLA-C*04:01. The description is as above. The following applies: source organism: Escherichia coli O139:H28 str. E24377A.
Assay [24] addresses HLA-B*58:01. Described as above. The settings on record: source organism: Escherichia coli O157:H7.
The target in assay [25] is HLA-A*24:02. The assay can be described thus: IEDB peptide-MHC binding, purified MHC/competitive/radioactivity; ≥ and ≤ were set here for values at or beyond the usual limits of such assays. The following applies: source organism: Homo sapiens.
Assay [26] concerns the target HLA-B*40:01. Described as above. The settings on record: source organism: Human papillomavirus 16.
The target of assay [27] is HLA-C*05:01. The assay can be described thus: IEDB peptide-MHC binding, purified MHC/direct/fluorescence; filed as Kd, often an IC50 or EC50 that approximates it; ≥ and ≤ were set here for values at or beyond the usual limits of such assays. The settings on record: source organism: Giardia lamblia ATCC 50803.
Assay [28] concerns the target HLA-C*06:02. The description is as above. The following applies: source organism: Giardia lamblia ATCC 50803.
For assay [29], the target named is HLA-B*15:42. The assay can be described thus: IEDB peptide-MHC binding, purified MHC/competitive/fluorescence; filed as Kd, often an IC50 or EC50 that approximates it; ≥ and ≤ were set here for values at or beyond the usual limits of such assays. The following applies: source organism: Giardia lamblia ATCC 50803.
Assay [30] addresses HLA-C*04:01. The assay is described as above. The following applies: source organism: Giardia lamblia ATCC 50803.
Assay [31] concerns the target HLA-A*68:23. The description is as above. The settings on record: source organism: Giardia lamblia ATCC 50803.
In assay [32] the target is HLA-B*45:06. Described as above. The settings on record: source organism: Giardia lamblia ATCC 50803.
Assay [33] deals with HLA-B*83:01. The description is as above. The following applies: source organism: Giardia lamblia ATCC 50803.
In assay [34] the target is HLA-B*73:01. Described as above. The settings on record: source organism: Giardia lamblia ATCC 50803.
Assay [35] concerns the target HLA-C*14:02. Described as above. The settings on record: source organism: Giardia lamblia ATCC 50803.
In assay [36] the target is HLA-A*02:12. The assay is described as above. The following applies: source organism: Vibrio cholerae 2740-80.
Assay [37] addresses HLA-A*24:03. The description is as above. The following applies: source organism: Vibrio cholerae 2740-80.
Assay [38] concerns the target HLA-B*57:01. Described as above. The settings on record: source organism: Vibrio cholerae 2740-80.
Assay [39] deals with HLA-A*25:01. The description is as above. The settings on record: source organism: Vibrio cholerae 2740-80.
In assay [40] the target is HLA-B*51:01. Described as above. The following applies: source organism: Vibrio cholerae 2740-80.
Assay [41] addresses HLA-B*27:03. The assay is described as above. The settings on record: source organism: Vibrio cholerae 2740-80.
The target of assay [42] is HLA-A*26:01. The assay is described as above. The following applies: source organism: Vibrio cholerae 2740-80.
The target of assay [43] is HLA-A*02:16. The description is as above. The settings on record: source organism: Vibrio cholerae 2740-80.
In assay [44] the target is HLA-A*03:01. The assay is described as above. The settings on record: source organism: Vibrio cholerae 2740-80.
Assay [45] addresses HLA-A*02:19. Described as above. The following applies: source organism: Vibrio cholerae 2740-80.
For assay [46], the target named is HLA-A*02:01. The assay is described as above. The following applies: source organism: Vibrio cholerae 2740-80.
For assay [47], the target named is HLA-B*46:01. Described as above. The following applies: source organism: Vibrio cholerae 2740-80.
Assay [48] addresses HLA-A*02:03. The assay is described as above. The settings on record: source organism: Vibrio cholerae 2740-80.
Setting [49] is: source organism: Ateles geoffroyi.

For ILNRETLLDFV, the concentration for half-maximal inhibition (IC50) in assay [1] (source organism: Homo sapiens), in assay [2] (source organism: Homo sapiens), in [3] (source organism: Homo sapiens), in assay [4] (source organism: Homo sapiens), in [5] (source organism: Homo sapiens) and in assay [6] (source organism: Homo sapiens) was at least 20 µM throughout. In addition, the IC50 in assay [7] (source organism: Homo sapiens), in assay [8] (source organism: Homo sapiens), in assay [9] (source organism: Homo sapiens), in assay [10] (source organism: Homo sapiens), in [11] (source organism: Homo sapiens) and in assay [12] (source organism: Homo sapiens) was at least 20 µM in each case. Also, the half-inhibitory concentration (IC50) in [13] (source organism: Homo sapiens) is at least 20 µM; in assay [14] (source organism: Homo sapiens), at least 20 µM; in [15] (source organism: Homo sapiens), at least 20 µM; in assay [16] (source organism: Homo sapiens) it was at least 20 µM; in assay [17] (source organism: Homo sapiens), 0.995 µM; in [18] (source organism: Homo sapiens), 0.0939 µM. Further, the IC50 in assay [19] (source organism: Homo sapiens) is at least 20 µM; in assay [20] (source organism: Homo sapiens), 13.2 µM.
In the case of LPADPASVL, the half-maximal inhibitory concentration (IC50) in assay [1] (setting [49]) was 0.818 µM; in [2] (setting [49]), at least 20 µM; in assay [3] (setting [49]), at least 20 µM; in [4] (setting [49]), 1.61 µM; in assay [5] (setting [49]), at least 20 µM; in [6] (setting [49]) it was at least 20 µM. Further, the concentration for half-maximal inhibition (IC50) was 14.5 µM in assay [7] (setting [49]); 0.134 µM in assay [8] (setting [49]); at least 20 µM in assay [9] (setting [49]); at least 20 µM in assay [10] (setting [49]); at least 20 µM in [11] (setting [49]); 0.006 µM in assay [12] (setting [49]). The IC50 in assay [13] (setting [49]) was 1.62 µM; in assay [14] (setting [49]), at least 20 µM; in assay [15] (setting [49]), at least 20 µM; in [16] (setting [49]), at least 20 µM; in assay [17] (setting [49]), 3.3 µM; in assay [18] (setting [49]) it was at least 20 µM. Also, the half-maximal inhibitory concentration (IC50) is at least 20 µM in [19] (setting [49]) and 1.09 µM in [20] (setting [49]).
Turning to YMWECPDFF, the equilibrium dissociation constant (Kd) is 1.44 µM in [21], 0.157 µM in assay [22], 0.137 µM in assay [23] and at least 5 µM in assay [24].
On to TYSVSFDSL, for which, in [25], the half-maximal inhibitory concentration (IC50) stood at 0.197 µM.
In the case of SEYRHYCYSL, the half-inhibitory concentration (IC50) in assay [26] came to 0.00054 µM.
YPFHIFYPV: the dissociation constant (Kd) in assay [27] was at least 20 µM; in assay [28], at least 20 µM; in assay [29], at least 5 µM; in [30] it was at least 5 µM; in [31], 0.0431 µM; in assay [32], 4.7 µM. Besides, the Kd came out at 0.137 µM in assay [33], 1.33 µM in [34] and 0.189 µM in assay [35].
Regarding HSYLWDHQM, the Kd in assay [36] is at least 20 µM; in assay [37], at least 20 µM; in assay [38], 0.0547 µM; in [39], at least 20 µM; in assay [40] it was at least 20 µM; in assay [41], at least 20 µM. The Kd in assay [42], in assay [43], in assay [44], in assay [45], in assay [46] and in assay [47] was at least 20 µM throughout. Moreover, in assay [48], the Kd was at least 20 µM.
